This is an account of results in PMC4857006.

The target of series [1] is T1, mTdp2cat (Mus musculus, UniProt Q9JJX7 118-370).
T1 sequence: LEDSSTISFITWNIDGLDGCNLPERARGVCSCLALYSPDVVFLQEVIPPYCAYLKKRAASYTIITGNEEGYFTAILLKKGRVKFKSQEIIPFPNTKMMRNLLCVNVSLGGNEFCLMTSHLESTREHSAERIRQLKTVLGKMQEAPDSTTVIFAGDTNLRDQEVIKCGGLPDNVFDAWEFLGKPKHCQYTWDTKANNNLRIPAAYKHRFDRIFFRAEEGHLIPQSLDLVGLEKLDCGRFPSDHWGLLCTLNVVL
Nature of the series: X-ray crystallography; Mn2+ soak (5 mM MnCl2); Crystals: hTdp2cat-DNA in 90 mM Tris pH 7.0, 27% PEG600, 9% glycerol, 450 mM (NH4)2SO4; mTdp2cat-DNA as in ref 20. Proteolysis buffer not in the material. Trp f.

In series [2] the target is T2, hTdp2cat (Homo sapiens, UniProt O95551 108-362).
T2 sequence: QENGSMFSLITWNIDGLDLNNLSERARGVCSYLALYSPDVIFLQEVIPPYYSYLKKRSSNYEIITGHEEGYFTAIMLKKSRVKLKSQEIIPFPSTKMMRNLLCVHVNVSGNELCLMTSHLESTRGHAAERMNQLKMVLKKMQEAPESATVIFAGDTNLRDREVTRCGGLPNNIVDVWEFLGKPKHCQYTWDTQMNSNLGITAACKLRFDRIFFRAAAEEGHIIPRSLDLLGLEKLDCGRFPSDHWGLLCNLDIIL
Kind of series: X-ray crystallography (3.2 A); product complex; Crystals: hTdp2cat-DNA in 90 mM Tris pH 7.0, 27% PEG600, 9% glycerol, 450 mM (NH4)2SO4; mTdp2cat-DNA as in ref 20. Proteolysis buffer not in the material. Trp f.

Series [3] concerns the target T1, mTdp2cat. Kind of series: X-ray crystallography (1.43 A); Mg2+; product complex; Crystals: hTdp2cat-DNA in 90 mM Tris pH 7.0, 27% PEG600, 9% glycerol, 450 mM (NH4)2SO4; mTdp2cat-DNA as in ref 20. Proteolysis buffer not in the material. Trp f.
Series [4] has as its target T2, hTdp2cat. Kind of series: limited proteolysis protection (chymotrypsin); with or without Mg2+; Crystals: hTdp2cat-DNA in 90 mM Tris pH 7.0, 27% PEG600, 9% glycerol, 450 mM (NH4)2SO4; mTdp2cat-DNA as in ref 20. Proteolysis buffer not in the material. Trp f.
The target in series [5] is T1, mTdp2cat. Nature of the series: limited proteolysis protection (trypsin, chymotrypsin); Mg2+; more protection than Mg2+ alone; Crystals: hTdp2cat-DNA in 90 mM Tris pH 7.0, 27% PEG600, 9% glycerol, 450 mM (NH4)2SO4; mTdp2cat-DNA as in ref 20. Proteolysis buffer not in the material. Trp f.
The target in series [6] is T1, mTdp2cat. Nature of the series: X-ray crystallography (1.55 A); product complex; Crystals: hTdp2cat-DNA in 90 mM Tris pH 7.0, 27% PEG600, 9% glycerol, 450 mM (NH4)2SO4; mTdp2cat-DNA as in ref 20. Proteolysis buffer not in the material. Trp f.

B1: 5'-P dC DNA (dsDNA)
DNA 1: CCGAATTCG
DNA 2: CCGAATTCG
modifications: 5'-phosphate
As to B1, the binding result with mTdp2cat [1] and with hTdp2cat [2] was “binds” each time.

B2: 5'-P epsilonA DNA (dsDNA)
DNA 1: ACGAATTCG
DNA 2: ACGAATTCG
modifications: 5'-phosphate; 5'-terminal A is 1-N6-ethenoadenine
With B2, the binding result in the series with mTdp2cat [3] is listed as “binds”.

B3: 12nt DNA (dsDNA)
DNA 1: CATCCGAATTCG
DNA 2: CATCCGAATTCG
modifications: 5'-phosphate
B3: the binding result in the series with hTdp2cat [4] and with mTdp2cat [5] was “binds” throughout.

B4: 5'-P dA DNA (dsDNA)
DNA 1: ACGAATTCG
DNA 2: ACGAATTCG
modifications: 5'-phosphate
In the case of B4, the binding result with mTdp2cat [6] is “binds”.
